Measurements as given in patent publication US20220119793A1.

Target: α-thrombin
Test: cell-based or functional assay

Q: For “human heparin cofactor II 60-sTyr-73-sTyr (from UniProt P05546 20-499)”, which maximal second-order rate constant (k2) of thrombin inhibition, at ~20 µg/mL heparin is on record?
A: 5e+06 M⁻¹ s⁻¹
